Test system: MBP-SpC33Leu fusion protein

enterokinase
cleavage of the fusion protein, MALDI-MS: No detectable amounts of MBP-linker-SP-C33(Leu) were observed, suggesting that the applied proteolytic reaction conditions result in a quantitative process
